A short description of the data set: protein stability index of a GFP-peptide fusion (GPS, HEK-293T) (PSI 1-6); higher = more stable.
Setting [1] is: treatment: DMSO, c terminus: a fixed tail appended.
[2] abbreviates: treatment: MLN4924 1 uM, 8 h, c terminus: a fixed tail appended.

± gives the standard deviation.
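Further: 24-mer peptide tiles fused after GFP, lentivirally expressed, FACS-sorted into six equal bins by GFP/DsRed ratio, decoded by Illumina sequencing, PSI is the read-weighted mean bin number.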

Turning to QQQHVSCQVFPERLAQGNPQQGFF [ATP23], the protein stability index was found to be 3.5 ± 0.34 under setting [1] and 3.28 ± 0.39 under setting [2].

FYSNLILQHEERETRQKKLEVAME [STK38L] showed a protein stability index under setting [1] of 3.08 ± 0.2 and a protein stability index under setting [2] of 3.08 ± 0.33.

With LGPSRDPDPLNICVFILLLVFIVV [RTP4], the protein stability index worked out at 3.8 ± 0.48 under setting [1] and 2.77 ± 0.41 under setting [2].

For the sequence TYVGALFNGLTLLLMAVVSMFTLP [RTN1], the protein stability index was 3 ± 0.58 under setting [1] and 3.43 ± 0.38 under setting [2].

As to KKAIKDLGISPSTCSFNPGVIVAN [GLT8D2], the protein stability index came to 2.95 ± 0.11 under setting [1] and 2.87 ± 0.43 under setting [2].

In the case of GLAGFFASVAMICAIASGSELSES [SLC29A1], the protein stability index is, setting by setting: under setting [1], 3 ± 0.53; under setting [2], 2.9 ± 0.37.

As for ADGVKPQTNSTKNSAAATSPKGTL [CAMK2B], the protein stability index amounted to 5.24 ± 0.14 under setting [1] and 5.4 ± 0.3 under setting [2].

In the case of QLTKELPLSPAFFGEDGIFRHDRL [PBXIP1], the protein stability index runs as follows: under setting [1], 3.07 ± 0.19; under setting [2], 3.01 ± 0.33.

On to TGLSMIANGGAICAVTFFTILLSY [OR4A15], for which the protein stability index by setting is: under setting [1], 2.85 ± 0.28; under setting [2], 3.16 ± 0.38.

As to GALGMSNRDSYFYAAIVAVVAVHV [VMA21], the protein stability index turned out to be 2.77 ± 0.45 under setting [1] and 2.81 ± 0.22 under setting [2].

Take NYTNPLKVQTVIILGKVILWILHL [TMEM192]: the protein stability index under setting [1] came out at 2.08 ± 0.19 and the protein stability index under setting [2] was determined as 2.15 ± 0.24.

On to LLRTFDAGEFTGWEKVGSGGFGQV [RIPK4], for which the protein stability index runs as follows: under setting [1], 2.43 ± 0.56; under setting [2], 2.53 ± 0.094.

Consider PQEKLWQQLRRGRYVEFNLLYDRG [CPOX], for which the protein stability index came out at 2.56 ± 0.11 under setting [1] and 2.55 ± 0.42 under setting [2].

Take LARVPKLDLKRQYDRVAQLDQLLH [CHGB]: the protein stability index reads like this: under setting [1], 2.15 ± 0.063; under setting [2], 2.48 ± 0.26.

As to PDNEQLMEEVISPRQVSYTPQHHE [IQUB], the protein stability index reads like this: under setting [1], 5.16 ± 0.4; under setting [2], 5.32 ± 0.19.

ALKDSLRPKLSEEQQRIIAILLDA [VDR]: the protein stability index was determined as 2.44 ± 0.2 under setting [1] and 2.44 ± 0.41 under setting [2].

As for LSSSSARFLSRSIPSLQSEYVHY [CDC14A], the protein stability index worked out at 3.19 ± 0.27 (treatment: DMSO, c terminus: native) and 3.06 ± 0.26 (treatment: MLN4924 1 uM, 8 h, c terminus: native).

On to EKTFWKEEKSFWEMEKSFREEEKT [CCDC70], for which the protein stability index was determined as 4.62 ± 0.23 under setting [1] and 4.82 ± 0.26 under setting [2].

Take VLSYLGLLSQEKLQEQHLSSPQGV [BCL2L13]: the protein stability index reads like this: under setting [1], 2.29 ± 0.31; under setting [2], 2.32 ± 0.38.

For the sequence TLVQDLANAFQQEAQTSGKERLLL [CHIT1], the protein stability index runs as follows: under setting [1], 3.16 ± 0.3; under setting [2], 2.91 ± 0.19.

LPPTPLLLFPEEEATNGREGLLRF [AUP1]: the protein stability index is 3.7 ± 0.33 under setting [1] and 3.73 ± 0.13 under setting [2].

Sequence GKIVGSLCAIAGVLTIALPVPVIV [KCNA1] had a protein stability index under setting [1] of 3.19 ± 0.34 and a protein stability index under setting [2] of 3.22 ± 0.44.

WIIKSNYQGLPVRCVKSIIRQVLQ [SRPK2]: the protein stability index turned out to be 2.75 ± 0.48 under setting [1] and 2.78 ± 0.5 under setting [2].

Take AEGARPLRENVPRVIMIVTDGRPQ [MATN2]: the protein stability index is 2.83 ± 0.61 under setting [1] and 3.56 ± 0.35 under setting [2].

The sequence AIILSSCLLGLGSLVLILSLSYTV [SLC2A12] gave a protein stability index under setting [1] of 3.06 ± 0.4 and a protein stability index under setting [2] of 3.26 ± 0.097.

Take IIDSSRSVNTHDYAKVKEFIVDIL [MATN2]: the protein stability index by setting is: under setting [1], 2.23 ± 0.2; under setting [2], 2.37 ± 0.22.

On to KESLETPSNGRIDIKQLIAKKIKL [SOAT1], for which the protein stability index by setting is: under setting [1], 2.55 ± 0.14; under setting [2], 2.94 ± 0.27.

Regarding TTSETQKSVQCGTWTKHAEGGIFT [NETO1], the protein stability index reads like this: under setting [1], 3.59 ± 0.085; under setting [2], 3.62 ± 0.23.

For the sequence DDTETVPSEQSHASGKLRKKKKKQ [TCF25], the protein stability index reads like this: under setting [1], 5.52 ± 0.44; under setting [2], 5.88 ± 0.17.

For the origin of these results see the supplement of paper PMC10567573.
